The record followed here is patent publication US20210122824A1.

Assay in all cases: flow cytometry, HEK293F cells transiently expressing the target, 100 nM antibody, PE anti-human Fc; Mean (PE-A against FITC-A, GFP surrogate)
In general terms: A flow cytometer gives signals particle by particle.

In assay [1] the target is human B7-H3 expressed on HEK293F cells (human) (UniProt Q5ZPR3).
In assay [2] the target is human CTLA4 expressed on HEK293F cells (human) (UniProt P16410).
Assay [3] deals with human LAG3 expressed on HEK293F cells (human) (UniProt P18627).
human LAG3 expressed on HEK293F cells (human), sequence (P18627 23-525): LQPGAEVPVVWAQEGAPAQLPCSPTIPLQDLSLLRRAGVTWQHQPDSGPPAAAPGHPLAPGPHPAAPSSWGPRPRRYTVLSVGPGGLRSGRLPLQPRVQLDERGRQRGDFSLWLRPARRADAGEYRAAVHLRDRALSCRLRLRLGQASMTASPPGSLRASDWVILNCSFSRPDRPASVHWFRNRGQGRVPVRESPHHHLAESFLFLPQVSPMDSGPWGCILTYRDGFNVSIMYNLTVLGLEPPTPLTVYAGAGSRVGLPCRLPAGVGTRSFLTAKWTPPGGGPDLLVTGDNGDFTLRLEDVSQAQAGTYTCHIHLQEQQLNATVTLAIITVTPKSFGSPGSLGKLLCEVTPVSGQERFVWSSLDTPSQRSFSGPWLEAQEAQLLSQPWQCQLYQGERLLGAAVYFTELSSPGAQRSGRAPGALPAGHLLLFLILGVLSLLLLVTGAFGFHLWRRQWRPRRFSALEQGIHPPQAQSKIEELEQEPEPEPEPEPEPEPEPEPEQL
In assay [4] the target is human PD-L1 expressed on cell surface (human) (UniProt Q9NZQ7).
human PD-L1 expressed on cell surface (human), sequence (Q9NZQ7 19-290): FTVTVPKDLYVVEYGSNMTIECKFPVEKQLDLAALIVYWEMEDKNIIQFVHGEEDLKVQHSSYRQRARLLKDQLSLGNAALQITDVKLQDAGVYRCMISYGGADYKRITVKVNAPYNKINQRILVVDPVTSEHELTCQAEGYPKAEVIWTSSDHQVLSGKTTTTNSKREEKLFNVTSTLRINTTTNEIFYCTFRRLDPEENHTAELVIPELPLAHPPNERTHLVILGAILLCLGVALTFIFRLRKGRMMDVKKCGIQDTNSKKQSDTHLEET
For assay [5], the target named is human PD1 expressed on HEK293F cells (human) (UniProt Q15116).
human PD1 expressed on HEK293F cells (human), sequence (Q15116 25-288): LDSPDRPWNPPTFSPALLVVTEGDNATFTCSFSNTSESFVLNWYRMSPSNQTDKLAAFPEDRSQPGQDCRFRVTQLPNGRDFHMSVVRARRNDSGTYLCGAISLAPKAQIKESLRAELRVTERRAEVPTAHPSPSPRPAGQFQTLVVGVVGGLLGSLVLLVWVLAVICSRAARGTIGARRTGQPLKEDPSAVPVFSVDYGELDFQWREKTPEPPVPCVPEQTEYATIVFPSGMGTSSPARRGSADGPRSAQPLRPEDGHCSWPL
Assay [6] addresses human TIM3 expressed on HEK293F cells (human) (UniProt Q8TDQ0).
Assay [7] addresses mouse PD-L1 expressed on HEK293F cells (mouse) (UniProt Q9EP73).
Assay [8] has as its target rhesus PD-L1 expressed on HEK293F cells (rhesus) (UniProt F6VEW6).

human B7-H3 expressed on HEK293F cells (human), sequence (Q5ZPR3 29-534): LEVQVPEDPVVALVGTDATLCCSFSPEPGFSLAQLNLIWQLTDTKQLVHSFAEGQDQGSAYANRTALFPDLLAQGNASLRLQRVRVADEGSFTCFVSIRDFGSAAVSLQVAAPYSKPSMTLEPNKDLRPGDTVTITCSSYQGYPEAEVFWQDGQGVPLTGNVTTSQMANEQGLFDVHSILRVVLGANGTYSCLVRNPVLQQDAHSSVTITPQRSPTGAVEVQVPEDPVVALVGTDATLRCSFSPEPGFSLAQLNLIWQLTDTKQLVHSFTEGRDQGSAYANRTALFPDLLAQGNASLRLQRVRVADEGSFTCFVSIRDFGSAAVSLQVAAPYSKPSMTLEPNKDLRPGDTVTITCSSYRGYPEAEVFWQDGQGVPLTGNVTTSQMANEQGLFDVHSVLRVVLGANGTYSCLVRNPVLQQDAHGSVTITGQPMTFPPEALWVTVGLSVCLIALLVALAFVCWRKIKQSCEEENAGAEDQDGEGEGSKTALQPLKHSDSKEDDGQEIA
mouse PD-L1 expressed on HEK293F cells (mouse), sequence (Q9EP73 19-290): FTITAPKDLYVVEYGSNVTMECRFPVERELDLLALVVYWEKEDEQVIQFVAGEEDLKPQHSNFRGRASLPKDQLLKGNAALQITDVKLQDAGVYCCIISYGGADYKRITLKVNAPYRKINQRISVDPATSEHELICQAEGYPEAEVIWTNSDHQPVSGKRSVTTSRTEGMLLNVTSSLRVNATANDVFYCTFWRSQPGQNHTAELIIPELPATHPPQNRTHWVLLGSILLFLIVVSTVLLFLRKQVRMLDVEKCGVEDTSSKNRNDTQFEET
human CTLA4 expressed on HEK293F cells (human), sequence (P16410 36-223): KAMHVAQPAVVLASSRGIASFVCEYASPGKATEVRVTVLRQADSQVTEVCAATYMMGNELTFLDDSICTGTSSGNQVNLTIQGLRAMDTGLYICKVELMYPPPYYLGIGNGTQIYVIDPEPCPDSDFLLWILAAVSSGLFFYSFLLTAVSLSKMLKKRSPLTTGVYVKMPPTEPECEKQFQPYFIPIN

In the case of Isotype control (antibody), the Mean in assay [1] turned out to be 2690; in assay [2], 2480; in assay [3], 2440; in assay [4], 2470; in assay [5], 3050; in assay [6] it was 2280. In addition, the Mean turned out to be 3030 in assay [7] and 2520 in assay [8].
